From article PMC9482650, “Quantitative fragmentomics allow affinity mapping of interactomes” (Nature Communications, 2022)

What follows are binders tested against GRIP2_5, Q9C0E4 (assay: holdup assay). Conditions: plain residues with an end cap or a label only (N-terminal biotin on a linker: (peg)3).
Chain of GRIP2_5, Q9C0E4 (Q9C0E4 544-642): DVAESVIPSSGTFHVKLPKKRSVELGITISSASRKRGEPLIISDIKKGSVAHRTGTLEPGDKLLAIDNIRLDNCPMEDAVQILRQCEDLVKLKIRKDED
YDEPTTTTSVPL [SARS-Cov2-3a, P0DTC3] was tested, and the pKd was “below the threshold”.

What follows are binders tested against T1, DFNB31_2, Q9P202 (assay: holdup assay). Conditions: plain residues with an end cap or a label only (N-terminal biotin on a linker: (peg)3).
T1 sequence (Q9P202 274-371, limits assumed, looked up): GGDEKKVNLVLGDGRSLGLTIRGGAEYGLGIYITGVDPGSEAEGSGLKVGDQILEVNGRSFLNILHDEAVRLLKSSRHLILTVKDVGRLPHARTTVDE
With YDEPTTTTSVPL [SARS-Cov2-3a, P0DTC3] the pKd was “below the threshold”.

These binders were tested against T2, ARHGAP21, Q5T5U3 (assay: holdup assay). Conditions: plain residues with an end cap or a label only (N-terminal biotin on a linker: (peg)3).
T2 sequence (Q5T5U3 45-169, limits assumed, looked up): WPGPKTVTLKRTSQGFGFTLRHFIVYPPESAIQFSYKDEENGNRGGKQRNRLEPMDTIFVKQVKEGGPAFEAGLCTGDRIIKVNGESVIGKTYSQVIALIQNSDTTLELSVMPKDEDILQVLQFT
With YDEPTTTTSVPL [SARS-Cov2-3a, P0DTC3] the pKd was 3.75.

Each binder was assayed against T3, GRIP1_3, Q9Y3R0 (assay: holdup assay). Conditions: plain residues with an end cap or a label only (N-terminal biotin on a linker: (peg)3).
T3 sequence (Q9Y3R0 247-346, limits assumed, looked up): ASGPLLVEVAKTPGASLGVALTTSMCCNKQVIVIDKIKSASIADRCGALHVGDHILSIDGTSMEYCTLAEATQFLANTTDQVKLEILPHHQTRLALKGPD
YDEPTTTTSVPL [SARS-Cov2-3a, P0DTC3] was tested, and the pKd was “below the threshold”.

What follows are binders tested against T4, MPP7, Q5T2T1 (assay: holdup assay). Conditions: plain residues with an end cap or a label only (N-terminal biotin on a linker: (peg)3).
T4 sequence (Q5T2T1 134-230, limits assumed, looked up): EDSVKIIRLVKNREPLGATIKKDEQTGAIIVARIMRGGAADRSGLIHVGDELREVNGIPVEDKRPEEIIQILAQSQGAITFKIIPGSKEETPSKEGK
For YDEPTTTTSVPL [SARS-Cov2-3a, P0DTC3], the pKd was “below the threshold”.

Each binder was assayed against T5, LIN7B, Q9HAP6 (assay: holdup assay). Conditions: plain residues with an end cap or a label only (N-terminal biotin on a linker: (peg)3).
T5 sequence (Q9HAP6 88-185, limits assumed, looked up): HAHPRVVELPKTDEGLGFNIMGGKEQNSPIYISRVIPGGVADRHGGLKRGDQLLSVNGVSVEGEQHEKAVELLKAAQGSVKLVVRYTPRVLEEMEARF
With YDEPTTTTSVPL [SARS-Cov2-3a, P0DTC3] the pKd was “below the threshold”.

Each binder was assayed against T6, PDZRN3_1, Q9UPQ7 (assay: holdup assay). Conditions: plain residues with an end cap or a label only (N-terminal biotin on a linker: (peg)3).
T6 sequence (Q9UPQ7 244-349, limits assumed, looked up): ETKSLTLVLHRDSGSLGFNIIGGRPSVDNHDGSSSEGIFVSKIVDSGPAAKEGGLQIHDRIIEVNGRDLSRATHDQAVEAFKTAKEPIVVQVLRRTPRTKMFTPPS
YDEPTTTTSVPL [SARS-Cov2-3a, P0DTC3] was tested, and the pKd was “below the threshold”.

Each binder was assayed against Inadl_2, Q8NI35 (assay: holdup assay). Conditions: plain residues with an end cap or a label only (N-terminal biotin on a linker: (peg)3).
Chain of Inadl_2, Q8NI35 (Q8NI35 238-335): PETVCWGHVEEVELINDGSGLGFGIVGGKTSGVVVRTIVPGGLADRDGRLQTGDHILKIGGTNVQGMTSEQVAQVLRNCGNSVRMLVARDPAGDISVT
YDEPTTTTSVPL [SARS-Cov2-3a, P0DTC3] was tested, and the pKd was “below the threshold”.

Each binder was assayed against PICK1, Q9NRD5 (assay: holdup assay). Conditions: plain residues with an end cap or a label only (N-terminal biotin on a linker: (peg)3).
Chain of PICK1, Q9NRD5 (Q9NRD5 17-115): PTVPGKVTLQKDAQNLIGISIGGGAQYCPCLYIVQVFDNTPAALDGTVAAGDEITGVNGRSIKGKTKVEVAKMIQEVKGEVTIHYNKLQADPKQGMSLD
For YDEPTTTTSVPL [SARS-Cov2-3a, P0DTC3], the pKd was “below the threshold”.

Each binder was assayed against LDB3, O75112 (assay: holdup assay). Conditions: plain residues with an end cap or a label only (N-terminal biotin on a linker: (peg)3).
Chain of LDB3, O75112 (O75112 1-94): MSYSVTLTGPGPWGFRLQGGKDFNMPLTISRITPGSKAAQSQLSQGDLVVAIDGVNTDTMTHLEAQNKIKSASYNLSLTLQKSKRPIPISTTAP
With YDEPTTTTSVPL [SARS-Cov2-3a, P0DTC3] the pKd was “below the threshold”.

These binders were tested against MAGI1_2, Q96QZ7 (assay: holdup assay). Conditions: plain residues with an end cap or a label only (N-terminal biotin on a linker: (peg)3).
Chain of MAGI1_2, Q96QZ7 (Q96QZ7 456-580): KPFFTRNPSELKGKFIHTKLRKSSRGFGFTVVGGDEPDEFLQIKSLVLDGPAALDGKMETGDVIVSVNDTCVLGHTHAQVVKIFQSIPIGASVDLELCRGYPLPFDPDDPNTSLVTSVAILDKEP
For YDEPTTTTSVPL [SARS-Cov2-3a, P0DTC3], the pKd was “below the threshold”.

The binders below were run against Inadl_10, Q8NI35 (assay: holdup assay). Conditions: plain residues with an end cap or a label only (N-terminal biotin on a linker: (peg)3).
Chain of Inadl_10, Q8NI35 (Q8NI35 1673-1763): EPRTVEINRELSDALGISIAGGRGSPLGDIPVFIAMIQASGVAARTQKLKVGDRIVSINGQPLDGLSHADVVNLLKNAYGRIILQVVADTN
YDEPTTTTSVPL [SARS-Cov2-3a, P0DTC3] was tested, and the pKd was “below the threshold”.

These binders were tested against Inadl_6, Q8NI35 (assay: holdup assay). Conditions: plain residues with an end cap or a label only (N-terminal biotin on a linker: (peg)3).
Chain of Inadl_6, Q8NI35 (Q8NI35 1058-1167): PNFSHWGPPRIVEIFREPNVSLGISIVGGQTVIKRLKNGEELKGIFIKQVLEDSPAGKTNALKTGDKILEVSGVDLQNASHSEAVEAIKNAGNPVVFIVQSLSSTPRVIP
YDEPTTTTSVPL [SARS-Cov2-3a, P0DTC3] was tested, and the pKd was “below the threshold”.

Each binder was assayed against MAGI2_5, Q86UL8 (assay: holdup assay). Conditions: plain residues with an end cap or a label only (N-terminal biotin on a linker: (peg)3).
Chain of MAGI2_5, Q86UL8 (Q86UL8 915-1017): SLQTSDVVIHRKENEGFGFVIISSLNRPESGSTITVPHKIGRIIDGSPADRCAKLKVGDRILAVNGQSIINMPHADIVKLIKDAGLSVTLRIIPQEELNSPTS
For YDEPTTTTSVPL [SARS-Cov2-3a, P0DTC3], the pKd was “below the threshold”.

What follows are binders tested against T7, SNTG1, Q9NSN8 (assay: holdup assay). Conditions: plain residues with an end cap or a label only (N-terminal biotin on a linker: (peg)3).
T7 sequence (Q9NSN8 52-150, limits assumed, looked up): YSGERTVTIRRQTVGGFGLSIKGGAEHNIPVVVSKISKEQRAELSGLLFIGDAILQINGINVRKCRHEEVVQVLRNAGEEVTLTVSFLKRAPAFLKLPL
For YDEPTTTTSVPL [SARS-Cov2-3a, P0DTC3], the pKd was “below the threshold”.

These binders were tested against GRIP2_7, Q9C0E4 (assay: holdup assay). Conditions: plain residues with an end cap or a label only (N-terminal biotin on a linker: (peg)3).
Chain of GRIP2_7, Q9C0E4 (Q9C0E4 934-1023): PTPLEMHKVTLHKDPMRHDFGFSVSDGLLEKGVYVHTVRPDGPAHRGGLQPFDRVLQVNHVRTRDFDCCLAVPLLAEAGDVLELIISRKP
YDEPTTTTSVPL [SARS-Cov2-3a, P0DTC3] was tested, and the pKd was “below the threshold”.

The binders below were run against T8, SYNJ2BP, P57105 (assay: holdup assay). Conditions: plain residues with an end cap or a label only (N-terminal biotin on a linker: (peg)3).
T8 sequence (P57105 8-110, limits assumed, looked up): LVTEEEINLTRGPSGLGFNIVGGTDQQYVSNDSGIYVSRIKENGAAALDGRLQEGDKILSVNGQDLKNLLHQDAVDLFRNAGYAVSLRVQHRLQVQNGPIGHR
For YDEPTTTTSVPL [SARS-Cov2-3a, P0DTC3], the pKd was “below the threshold”.

Each binder was assayed against T9, NHERF3_1, Q5T2W1 (assay: holdup assay). Conditions: plain residues with an end cap or a label only (N-terminal biotin on a linker: (peg)3).
T9 sequence (Q5T2W1 4-100, limits assumed, looked up): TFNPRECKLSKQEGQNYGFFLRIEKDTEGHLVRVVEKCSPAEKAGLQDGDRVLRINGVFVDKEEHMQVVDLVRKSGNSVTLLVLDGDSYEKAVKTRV
For YDEPTTTTSVPL [SARS-Cov2-3a, P0DTC3], the pKd was 3.92.

Each binder was assayed against MAGI3_2, Q5TCQ9 (assay: holdup assay). Conditions: plain residues with an end cap or a label only (N-terminal biotin on a linker: (peg)3).
Chain of MAGI3_2, Q5TCQ9 (Q5TCQ9 398-503): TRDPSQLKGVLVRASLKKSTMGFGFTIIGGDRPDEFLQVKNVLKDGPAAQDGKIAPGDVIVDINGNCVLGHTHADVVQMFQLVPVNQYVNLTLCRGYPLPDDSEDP
For YDEPTTTTSVPL [SARS-Cov2-3a, P0DTC3], the pKd was “below the threshold”.

Each binder was assayed against T10, HTRA4, P83105 (assay: holdup assay). Conditions: plain residues with an end cap or a label only (N-terminal biotin on a linker: (peg)3).
T10 sequence (P83105 378-476, limits assumed, looked up): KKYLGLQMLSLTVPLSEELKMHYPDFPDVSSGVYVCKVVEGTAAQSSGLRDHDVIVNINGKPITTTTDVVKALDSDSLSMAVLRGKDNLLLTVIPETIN
In the case of YDEPTTTTSVPL [SARS-Cov2-3a, P0DTC3], the pKd is reported as “below the threshold”.

These binders were tested against FRMPD2_3, Q68DX3 (assay: holdup assay). Conditions: plain residues with an end cap or a label only (N-terminal biotin on a linker: (peg)3).
Chain of FRMPD2_3, Q68DX3 (Q68DX3 1073-1166): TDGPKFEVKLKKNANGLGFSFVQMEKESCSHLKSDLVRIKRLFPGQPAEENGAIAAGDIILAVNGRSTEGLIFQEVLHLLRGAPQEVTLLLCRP
YDEPTTTTSVPL [SARS-Cov2-3a, P0DTC3] was tested, and the pKd was “below the threshold”.

What follows are binders tested against T11, DLG3_2, Q92796 (assay: holdup assay). Conditions: plain residues with an end cap or a label only (N-terminal biotin on a linker: (peg)3).
T11 sequence (Q92796 221-321, limits assumed, looked up): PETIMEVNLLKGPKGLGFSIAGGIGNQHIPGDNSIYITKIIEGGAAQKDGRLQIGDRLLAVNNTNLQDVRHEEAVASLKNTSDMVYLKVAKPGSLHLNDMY
In the case of YDEPTTTTSVPL [SARS-Cov2-3a, P0DTC3], the pKd is reported as “below the threshold”.

The binders below were run against T12, MPP6, Q9NZW5 (assay: holdup assay). Conditions: plain residues with an end cap or a label only (N-terminal biotin on a linker: (peg)3).
T12 sequence (Q9NZW5 125-219, limits assumed, looked up): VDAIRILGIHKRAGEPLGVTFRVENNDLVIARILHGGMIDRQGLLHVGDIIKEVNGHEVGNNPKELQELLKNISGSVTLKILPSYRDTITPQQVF
YDEPTTTTSVPL [SARS-Cov2-3a, P0DTC3] was tested, and the pKd was “below the threshold”.

The binders below were run against GIPC2, Q8TF65 (assay: holdup assay). Conditions: plain residues with an end cap or a label only (N-terminal biotin on a linker: (peg)3).
Chain of GIPC2, Q8TF65 (Q8TF65 112-203): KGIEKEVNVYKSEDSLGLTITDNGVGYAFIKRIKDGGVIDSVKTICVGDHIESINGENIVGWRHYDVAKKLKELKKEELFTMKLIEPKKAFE
YDEPTTTTSVPL [SARS-Cov2-3a, P0DTC3] was tested, and the pKd was “below the threshold”.
